Experiments:
[1] = target: Human insulin (Actrapid) (human); assay: SPR (Biacore 3000), insulin 0.25-10 µM over C-terminally immobilized insulin; global fit, analyte with two sites competing for one site on the chip; slow off rate
[2] = target: Human insulin (Actrapid) (human); assay: SPR (Biacore 3000), insulin 0.25-10 µM over C-terminally immobilized insulin; global fit, analyte with two sites competing for one site on the chip; rapid off rate

- Kd [1]: 2.71 µM
- Kd [2]: 4.65 µM
Substance: Human insulin (Actrapid) (ligand; other documents disagree on this pair)

Source: patent publication US20100216693A1, “COMPOSITIONS AND METHODS OF TREATING DIABETES” (priority 2005, published 2010)
